The nanobody polyreactivity screen of Harvey et al. (2022)

Experiment: yeast display, Sf9 membrane polyspecificity reagent, FACS + sequencing; frameworks hold sequencing errors
Outline: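 In a synthetic yeast display library (Saccharomyces cerevisiae BJ5465), nanobody expression was induced with galactose for 36–48 hours. FACS gates were set low and high (top ~1%) using anti-HA fluorescence for expression and streptavidin fluorescence for binding of the Sf9 membrane reagent. Each polyreactivity label is drawn from the gate of origin.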

| Sequence | polyreactivity (PSR sort gate) |
| --- | --- |
| QVQLVESGGGLVQAGGSLRLSCAPSGRTFRYYAMGWYRQAPGKERELVATISKSGGSTYYADSVKGRFTISRDNAKNTVYLQMNSLKPEDTAVYYCAAPIYNGYASWQVYYWGQGTQVTVSS | high polyreactivity |
| QVQLVESGGGLVQAGGSLRLSCAPSGRTFTAYAMGWYRQAPGKERELVAAITSGGSTYYADSVKGRFTISRDNAKNTVYLKRKSLKPEDTAVYYCATDLYSFYWPEYEYWGQGTQVTLSS | low polyreactivity |
| QVQLVESGGGLVQAGGSLRLSCAPSGRTFWSYAMGWYRQAPGKERELVAAISLDDGTTYYADSVKGRFTISRDNAKNTVYLQMNSLKPEDTAVYDCAAEREQGDDGYGPDYGYWGQGTQVTVSS | high polyreactivity |
| QVQLVESGGGLVQAGGSLRLSCAPSGSIFEINAMGWYRQAPGKERELVAAITGSGGSTHYADSVKGRFTISRDNAKKTVYLEMNSLKPEDTAVYYCAAVQRYQYGYWGQGTQVTVSS | low polyreactivity |
| QVQLVESGGGLVQAGGSLRLSCAPSGSIFVVNAMGWFRQAPGKEREFVAAITFGGGTTYYADSVKGRITISRDNAKNTVYLQMYSLKPEDTEVYYCNTRTRGYSSYVGGYNYWGQGTQVTVSS | low polyreactivity |
| QVQLVESGGGLVQAGGSLRLSCAPSGSIFWYYCKGWYRQAPGKERELVAAISSGGSTNYADSVKGRFAISRDNAKNTVYLQMNSLKAEDTAVYYCAVRFTFPRYDYWGQGTQVTVSS | high polyreactivity |
| QVQLVESGGGLVQAGGSLRLSCAPSGSILWQYAMGWYRQAPGKERELVAAITYSGGSTHYADSVKGRFTISRDNAKNTVYLQMNSLKPEETAVYYCAAGYWYRYAALRYDHWGQGTQVTVSS | low polyreactivity |
| QVQLVESGGGLVQAGGSLRLSCAPSGSTFDPFAMGWYRQAPGKERELVADITSSDGSTYYADSVKGRFTISRDNAKNTVYFQMNSLKPEVTAVYYCYSDYRYFWTYWGWSIYDYWGQGTQVTVSS | high polyreactivity |
| QVQLVESGGGLVQAGGSLRLSCAPSGSTFFTYAMGWYRQAPGKERELVASISIGGSTNYADSVKGRFTISRDNAKNTVYLQMNSLIQEDSAVYYCAIRYFTFGVDYEYWGQGTQVTVSS | low polyreactivity |
| QVQLVESGGGLVQAGGSLRLSCAPSGSTFRGNAMGWYRQAPGKERELVAAITRRGGSTYYADSVKGRFTISRDNAKNTVYLQMNSLKPEDTAVYYCAKVGRETEYAYWGQGTQVTVSS | high polyreactivity |
| QVQLVESGGGLVQAGGSLRLSCAPSGSTFRRNAMGWSRQAPGKERELVAANSGSGGRTYYADSVKGRITISRDNAKNTVYLQMNSMKPEDTAVYYCAARSTVYEFFYYRGWWEYYYWGQGTQVTVSS | low polyreactivity |
| QVQLVESGGGLVQAGGSLRLSCAPSGSTFYVNTMGWYRQAPGKERELVAAITATGASTYYADSVKGRFTISRDNAKNTVYVQMNSLKPEDTAVYYCNVRLRIRSGYWGQGTQVTVSS | high polyreactivity |
| QVQLVESGGGLVQAGGSLRLSCAPSGYIFQAYVMGWYRPAPGKERELVAAITSGGGTYYADSVKGRFTISRDNAKNTVYLQMISLKPEDTAVYYCAARYTQRPRRNYWGQGSQVTVSS | high polyreactivity |
| QVQLVESGGGLVQAGGSLRLSCAPSGYNFSKYAMGWYRQAPGKERELVAAITSGGGSTYYADSVKGRFTISRDNAKNTVYLQMNSLKPEDTAVYYCNAACRRIVGQTYDYWGQGTQVTVSS | high polyreactivity |
| QVQLVESGGGLVQAGGSLRLSCAPSGYTFWLYAMGWYRQAPGKERELVAAITWNGGSTYYADSVKGRFTISRDIAKNTVYLQMISLNPEYTAVYYCAAEAIIYLQWFDYWGQGTQVTVSS | low polyreactivity |
| QVQLVESGGGLVQAGGSLRLSCAPSRSTLNYYAMGWYRQAPGKERELVAAITWSGGSTSYADSVKGRFTISRDNAKNTVYLQMNSLKPEDTAVYYCATDFPTVQLYDTDWLSSDMGYWGQGTQVTVSS | low polyreactivity |
| QVQLVESGGGLVQAGGSLRLSCAPSVRTFQYYAMGWYRPAPGKERELVAAINQGGGRTYYADSVKGRFTISRDTAKNTVYLQMNSLKPEDTAVYYCAADGLSKFDYWGQGTQVTVSS | low polyreactivity |
| QVQLVESGGGLVQAGGSLRLSCAPTGFTIGWYAMGWYRQAPGKERELVATISWSGSSTYYADSVKGRFTISRDNAKNTVYLQMNSLKPEDTAVYYCNAVYGRFVVLRYDYWAQGTQVTVSS | high polyreactivity |
| QVQLVESGGGLVQAGGSLRLSCASSGFIFAYNAMGWYRQAPGKERELVAAISRSGGSTRYADSVKGRFTISRDNAKNTVYLQMNSLIPEDTAVYYCAADWSDYWDWSWYDYWGQGTQVTVSS | high polyreactivity |
| QVQLVESGGGLVQAGGSLRLSCASSGFIFKRYAMGWYRQAPGKERELVAAITSGGSTHYADSVKGRFTISRDNAKNTVYLQMNSLKPEDTAVYYCATRRYKWGVRYDYWGQGTQVTVSS | high polyreactivity |
| QVQLVESGGGLVQAGGSLRLSCASSGFTFGVYAMGWYRTAPGKERELVAGITRGGSTNYADSVKGRFTISRDNAKNTVYLQMNSLKPEDTAVYYCAKVSYGYLRSWGRYTRGDYWGQGTQVTVSS | high polyreactivity |
| QVQLVESGGGLVQAGGSLRLSCASSGFTFPFYAMGWYRQAPGKESELVAAISWSGGSTYYADSVKGRFTISRDNAKNTVYLQMNSLKPEDTAVYYCAAEYISSPLGYDYWGQGTQVTVSS | high polyreactivity |

| Sequence | polyreactivity (PSR sort gate) |
| --- | --- |
| QVQLVESGGGLVQAGGSLRLSCASSGFTFSLYARGWYSQAPGKEMELVAAISQRGGSTYYADSVKGRFTISRDNAKNTDYLQMNSLKPEDTAVYYCNDYAQVSYGTYDYWGQGTQVTVSS | high polyreactivity |
| QVQLVESGGGLVQAGGSLRLSCASSGGISYYYYAMGWYRQAPGKERELVAAISSDDDTYYADSVKGRFTISRDNAKNTVYLQMNSLKPEDTAVYYCAAEYDVVGPSIYGYLFYYWGQGTQVTVSS | high polyreactivity |
| QVQLVESGGGLVQAGGSLRLSCASSGGTFGSYAMGWYRHAPGKERELVAAIRSGDRTYYADSVKGRFTISRDNAKNTVYLQMNSLKPEDTAVYYCAAFYHHYYRYDYWGQGTQVTVSS | low polyreactivity |
| QVQLVESGGGLVQAGGSLRLSCASSGGTFSTYAMGWYRQAPGKERELVAAISSTGGSTYYADSVKGRFTISGDNAKNTVYLQMNSLKPEDTAVYYCAAYYSRGWLLYWDEMYFWGQGTQVTVSS | high polyreactivity |
| QVQLVESGGGLVQAGGSLRLSCASSGITFGRNTMGWYRQAPGKERELVAAIDSGGNTYADSVKGRFTISRDNAKNTVYLQMNSLKPEDTAVYYCDVDGGEFSSYGYWGQGTQVTVSS | low polyreactivity |
| QVQLVESGGGLVQAGGSLRLSCASSGITFGVYAMGWYRQAPGKERELVAAISRRGAYTYYADSVKGRFTISRDNGKNTVYLQMNSLKPEDTAVYYCAAYLARRQYDYWGQGTQVTVSS | high polyreactivity |
| QVQLVESGGGLVQAGGSLRLSCASSGITFRVYAMGWYRQAPGKERELVAGISRGGRTSYADSVKGRFTISRDNAKNTVYLQMNSLKPEDTAVYYCAARQYRHRVKYYYWGQGTQVTVSS | high polyreactivity |
| QVQLVESGGGLVQAGGSLRLSCASSGITFYVYAMGWYRQAPGKERELVASISWNGGRTYYADSVKGRFTISRDNAKNTVYLQMNSLKPEDTAVYYCAARAYSYWSGLDYWGQGTQVTVSS | high polyreactivity |
| QVQLVESGGGLVQAGGSLRLSCASSGLIFQYYVKGWYRQAPGKERELVAAISARGGGTYYADSVKGRFTISRDNAKNTVYLQMISLKPEDTAVYYCAADPVYAGPGYDYWGQGTQVTVSS | high polyreactivity |
| QVQLVESGGGLVQAGGSLRLSCASSGLTFRNYAMGGYRPAPGKERELVAAITVSGGSTYYADSVKGRFTISRDNAKNTVYLQMNSLKPEDTAVYYCAARVIHTTYSRNYYYWGQGTQVTVSS | high polyreactivity |
| QVQLVESGGGLVQAGGSLRLSCASSGLTFYGNAMVWYRPAPGKERELVAAISSSGGTTYYADSVKGRFTISRDNAKNTVYLQMTSLKPEDTAVYYCAARPSGGYESTRTRDYWGQGTQVTVSS | low polyreactivity |
| QVQLVESGGGLVQAGGSLRLSCASSGNIFRKYAMAWYRQAPGKERELVAITSGTNTYYADSVKGRFTISRDNAKNTVYVQMNSLKPEDSAVYYCNKSGFRSSHKYDYWGQGTQVTVSS | low polyreactivity |
| QVQLVESGGGLVQAGGSLRLSCASSGNTFVDYAMGWFRQAPGKETELVAAISDGGSTNYADSVKGRFTISRDNAKNTVDLQMNSLKPEDTEVYYCAKDELYIPGVWPYYEYDYWGQGTQVTVSS | low polyreactivity |
| QVQLVESGGGLVQAGGSLRLSCASSGRIFKKYAMGWYIQAPGKERELVATISSGGSTYYADSVKGRFTISRDNAKNTVYLQMNSLKREDTAGSYCARREYVRRDYFVTTYDYWGQGTQVTVSS | low polyreactivity |
| QVQLVESGGGLVQAGGSLRLSCASSGRIFKYNAMGWYRQAPGKERELVAAISSSGARTYYADSVKGRFTISRDNAKNTVYLQMNSLKPEDTAVDYCAAPFTSNRSIRPYGYWGQGTQVTVSS | high polyreactivity |
| QVQLVESGGGLVQAGGSLRLSCASSGRIFPYYAMGRYRQAPGKERDLVAAITSVGSTNYADSVKGRFTISRDNAKNTVYLQINSLKPEDTAVYYCAAESTEGTSGDYDYWAQGTQVTVSS | low polyreactivity |
| QVQLVESGGGLVQAGGSLRLSCASSGRIFQYYVKGWYRQAPGKERELVAAITSGGGTKYADSVKGRFTISRDNENNTVYLQMNSLKPEDTAVYYCAAAWFDQYSRYDYWGQGTQVTVSS | low polyreactivity |
| QVQLVESGGGLVQAGGSLRLSCASSGRIFVFNAMGWYRPAPGKERELVAAINWSGGTTYYADSVKGRFTISRDNAKNTVYLQMNSVNPEDTAVYYCNAYLNRRMGYWGQGTQVTVSS | high polyreactivity |
| QVQLVESGGGLVQAGGSLRLSCASSGRIFYGYAMVWYRQAPGKERELVAAIRWYGGNTYYADSVKGRFTISRDNAKNTVYLQMNSLKPEDTAVYYCAARAYYARFVMGYWGQGTQVSVSS | high polyreactivity |
| QVQLVESGGGLVQAGGSLRLSCASSGRTFGLYDMGWYRQAPGKERELVAGITRRGGRTYYADSVKGRFTISRDNAKNPVELLMHCRKPEDTAVYYCNKVVTRWNQRWRYSEGNYWGQGTQVTVSS | high polyreactivity |
| QVQLVESGGGLVQAGGSLRLSCASSGRTFPAYAMGWYRPAPGKERELVAAISSSGSRTYYAASVKGRFTISRDNAKNTVYLQMNRLIPEDTAVYYCAARGGRRQKVNRDDYWGQVTQVTVSS | high polyreactivity |
